# Assay results reported in publication PMC5552852, “Structural basis for Ccd1 auto-inhibition in the Wnt pathway through homomerization of the DIX domain” (Scientific Reports, 2017).
# B1: zebrafish Coiled-coil-DIX1 (zCcd1) DIX domain [zebrafish] / itself (parent)
# chain: AAASTKVLYYTDRSLTPFLVNIPKRLGDVTLQDFKAAVDRHGSFRYHFKSLDPEFGTVKEEVFQDDAVIPGWEGKIVAWVEED
# Variants of: B1
# Experiment: gel filtration
# Conditions: with itself; read off a plot
row,screen value [mL],Variant
1,80,AAASTKVLYFTDRSLTPFLVNIPKRLGDVTLQDFKAAVDRHGSFRYHFKSLDPEFGTVKEEVFQDDAVIPGWEGKIVAWVEED [chain 1 Y10F]
